According to patent publication US20260234247A1 (published 2026):

Assays:
[1] = target: T1, human LILRB1 on CHOK1 cells (human, UniProt Q8NHL6 24-650); experiment: FACS binding, CHOK1-hLILRB1 cells
T1 construct: whole, on cells; also called CHOK1-hLILRB1; CHOK1-LILRB1

[2] = target: T2, human LILRB2 on CHOK1 cells (human, UniProt Q8N423 22-597); experiment: FACS binding, CHOK1-hLILRB2 cells
T2 construct: whole, on cells; also called CHOK1-hLILRB2; CHOK1-LILRB2

[3] = target: T1, human LILRB1 on CHOK1 cells; experiment: cell-based RBA (FACS): blocking of HLA-G binding to CHOK1-hLILRB1 cells

T1 sequence (Q8NHL6 24-650): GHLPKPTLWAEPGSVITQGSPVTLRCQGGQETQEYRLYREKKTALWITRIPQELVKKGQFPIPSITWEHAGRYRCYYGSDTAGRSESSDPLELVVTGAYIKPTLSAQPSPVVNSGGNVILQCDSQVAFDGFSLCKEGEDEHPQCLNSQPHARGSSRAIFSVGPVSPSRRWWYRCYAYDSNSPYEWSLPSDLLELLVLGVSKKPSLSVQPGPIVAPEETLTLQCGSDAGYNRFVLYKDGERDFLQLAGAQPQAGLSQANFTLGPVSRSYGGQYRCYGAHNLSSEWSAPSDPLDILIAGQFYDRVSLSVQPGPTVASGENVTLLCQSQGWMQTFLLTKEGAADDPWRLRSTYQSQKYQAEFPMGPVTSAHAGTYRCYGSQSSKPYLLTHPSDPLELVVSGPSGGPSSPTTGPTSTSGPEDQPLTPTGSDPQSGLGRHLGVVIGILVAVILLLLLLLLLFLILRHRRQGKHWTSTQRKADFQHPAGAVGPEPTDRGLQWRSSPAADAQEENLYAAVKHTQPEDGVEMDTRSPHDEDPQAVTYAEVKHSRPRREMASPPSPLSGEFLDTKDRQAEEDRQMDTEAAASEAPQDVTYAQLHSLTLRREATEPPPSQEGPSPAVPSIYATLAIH
T2 sequence (Q8N423 22-597): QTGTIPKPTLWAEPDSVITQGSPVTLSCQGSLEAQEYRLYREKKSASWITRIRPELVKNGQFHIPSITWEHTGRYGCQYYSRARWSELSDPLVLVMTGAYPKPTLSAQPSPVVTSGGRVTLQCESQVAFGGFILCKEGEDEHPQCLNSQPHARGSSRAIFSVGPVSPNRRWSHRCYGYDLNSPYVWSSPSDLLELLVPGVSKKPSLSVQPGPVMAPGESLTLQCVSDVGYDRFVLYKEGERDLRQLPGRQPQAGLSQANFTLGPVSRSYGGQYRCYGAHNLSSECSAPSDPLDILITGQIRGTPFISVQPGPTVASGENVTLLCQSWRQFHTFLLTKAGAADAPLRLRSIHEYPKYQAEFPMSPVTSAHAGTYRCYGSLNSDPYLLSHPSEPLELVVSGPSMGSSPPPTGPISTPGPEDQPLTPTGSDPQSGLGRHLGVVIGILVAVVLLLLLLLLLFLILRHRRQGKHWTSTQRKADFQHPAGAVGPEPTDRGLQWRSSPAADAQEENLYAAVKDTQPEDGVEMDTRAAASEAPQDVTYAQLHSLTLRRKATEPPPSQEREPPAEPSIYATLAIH

| binding result [1] | binding result [2] | EC50 [1] [nM] | EC50 [3] [nM] | Top Inhibition (%) [3] [%] | EC50 [2] [nM] | Binder |
| --- | --- | --- | --- | --- | --- | --- |
| no binding | no binding | – | – | – | – | LK-RB1-51 (antibody, human IgG4 S228P, kappa, V domains shown) VH: QVQIQQSGAELVKPGASVKLSCKASGYTFTEFPIHWIKQRSGQGLEWIGWFYPGSDNMNYNEKFKDKATLTADKSSSTVYMELSRLTSEDSAVYFCARHENAYFYAMDYWGQGTSVTVSS VL: ENVLTQSPAIMSASLGEKVTMSCRASSSVNYMYWYQQKSDASPKIWIYYTSNLAPGVPARFSGSGSGNSYSLTISSMEGEDAATYYCQQFTSSPFTFGTGTKLEIKR |
| – | no binding | 2.45 | – | – | – | LK-RB1-38 (antibody, human IgG4 S228P, kappa, V domains shown) VH: DVQLQESGPGLVQPSQSLSLTCSVTGYSITSGYQWNWIRQLPGNKLEWMAYISFDGSNNYNPSLKNRISITRDTSKNQFFLKLKSVTTEDTATYYCARRDYDGVAYWGQGTLVTVSA VL: EIVLTQSPATLSVTPGDRVSLSCRASQNISNYLHWYQQKSHGSPRLIIKYASQSISGIPSRFSGSGSGTDFTLSINSVETEDFGMYFCQQSNSWPLTFGAGTKLELKR |
| no binding | no binding | – | – | – | – | LK-RB1-40 (antibody, human IgG4 S228P, kappa, V domains shown) VH: DVQLQESGPGLVQPSQSLSLTCSVTGYSITSGYQWNWIRQLPGNKLEWMAYISFDGSNNYNPSLKNRISITRDTSKNQFFLKLKSVTTEDTATYYCARRDYDGVAYWGQGTLVTVSA VL: DVLMTQTPLSLPVSLGDQASISCRSSQSIVHSNGNTYLEWYLQKPGQSPKLLIYKVSNRFSGVPDRFSGSGSGTDFTLKISRVEAEDLGVYYCFQGSHVPWTFGGGTKLEIKR |
| – | no binding | 0.97 | – | – | – | LK-RB1-46 (antibody, human IgG4 S228P, kappa, V domains shown) VH: EVQLQQSGPELVKPGASVKISCKTSGYTFTDYYMNWVKQSHGKSLEWIGDIYPINGDISYNQKFKGKATLTVDKSSSTVYMEIRSLTYEDSAVYYCARLAQTTSGGFDYWGQGTTLTVSS VL: DIVLTQSPTSLAVSLGQRAIISCKASQSVSFAGTSLMHWYQQKPGQQPKLLIYRASNLKAGVPTRFSGSGSRTDFTLNIHPVEEDDAATYYCQQSREYPMYTFGGGTKLEIKR |
| – | no binding | 0.28 | 0.44 | 81.9 | – | LK-RB1-2 (antibody, human IgG4 S228P, kappa, V domains shown) VH: QIQLVQSGPELKKPGETVKISCKASGYTFTTYGVSWVKQAPGKGLKWMGWINTYSGVSTYSDDFKGRFAFSLETSASTAYLQIINLKNEDAATYFCSRRRRTYDGYLSFDYWGQGTTLTVSS VL: DIQMTQSPGSLSASVGETVTITCGASENIYGALNWFQRKPGKSPQLLIYGATNLADGMSSRFSGSGSGRQYSLQISSLRPDDVATYYCQNVLTTPWTFGGGTKVEIKR |
| – | no binding | 0.17 | 0.32 | 78 | – | LK-RB1-1 (antibody, human IgG4 S228P, kappa, V domains shown) VH: QIQLVQSGPELKKPGETVKISCKASGYSFTNFGMSWVKQAPGKALKWMGWINTYSGVPTYADDFKGRFAFSLETSANTAYLQINNLKNEDSATYFCARRRRTFDGYLCFDYWGQGATLTVSS VL: QLVLTQSSSASFSLGASAKLTCTLSSQHSTYSIDWYQQQPLKPPKYVMELKTDGSHRTGDGIPDRFSGSSSGADRYLSISNIQPEDEAIYICGVGDTIKEQFVYVFGGGTKVTVLR |
| – | – | 2.01 | – | – | 605 | LK-RB1-50 (antibody, human IgG4 S228P, kappa, V domains shown) VH: QVQLKQSGPGLVQPSQSLSITCTVSGFSLTSYGVHWVRQSPGKGLEWLGVIWRGGNTDYNAPFVSRLSITKDNSQSQVFFKMNSLEADDTAIYYCAKNSLDVYSSWYFDVWGTGTTVTVSS VL: QIVLSQSPAILSAFPGEKVTMTCRASSSVSFMHWYQQKPGSSPKPWIYATSNLASGVPARFSGSGSGTSYSLTISRVEAEDAATYYCQQWSSNPLTFGAGTKLELKR |
| – | no binding | 1.24 | – | – | – | LK-RB1-56 (antibody, human IgG4 S228P, kappa, V domains shown) VH: QVQLKQSGPGLVQPSQSLSITCSVSGFSLTNYGVHWVRQSPGKGLEWLGVIWRGGSTDNNAAFMSRLSITKDNSKSQVFFKMNSLQADDTAIYYCAKNSDFYGSSWYFDVWGTGTTVTVSS VL: QIVLSQSPAILSASPGEKVTMTCRASSSVSFMHWYQQKPGSSPKPWIYATSNLASGVPARFSGSGSGTSYSLTISRVEAEDAATYYCQQWSRNPPTFGAGTKLELKR |
| – | no binding | 5 | – | – | – | LK-RB1-58 (antibody, human IgG4 S228P, kappa, V domains shown) VH: QVQLKQSGPGLVQPSQSLSITCTVSGFSLTTYGVHWVRQSPGKGLEWLGVIWRGGSTDYNAAFMSRLSITKDNSKSQVFFRMNSLQADDTARYYCAKNSLYYGSSWYFDVWGTGTTVTVSS VL: QIVLSQSPAILSASPGEKVTMTCRASSSVSFMHWYQQKPGSSPKPWIYATSNLASGVPARFSGSGSGTSYSLTISRVEAEDAATYYCQQWSSNPPTFGGGTKLEIKR |
| – | no binding | 1 | 1.74 | 85.9 | – | LK-RB1-4 (antibody, human IgG4 S228P, kappa, V domains shown) VH: QVQLQQPGAELVKPGASVKLPCKTSGYTFTSYWMHWVKQRPGRGLEWIGRIDPHYSGTKYNEKFKNKATMTVDTPSSTAYMQLSSLTSEDSAVYYCARFDGDPYYFDYWGPGTTLTVSS VL: DIVMTQSQKFMSTSVGDRVSVTCKASQNVGTNVAWYKQKAGQSPKAVIYSASYRYSGVPDRFTGSGSGTDFTLSISNVQSEDLAEYFCQQYNNNPFTFGSGTKLEIKR |
| – | no binding | 2.79 | – | – | – | LK-RB1-44 (antibody, human IgG4 S228P, kappa, V domains shown) VH: QVQLQQSGTELAKPGASVKLSCKASGYTFTNYWMHWIKQRPGQGLEWIGYVHPTSDYTKYNQKFKDKATLTADKSSSTAYMQLNSLTYEDSAVYYCTRSSLYDTNYVFDSWGQGTTLTVSS VL: DILLTQSPAILSVSPGERVSFSCRASQSIGRSIHWFQQRTNGSPSLLIKYASESISGIPSRFSGGGSGTDFTLSISNVESEDIADYYCQQSNNWPFTFGSGTKLEIKR |
| – | no binding | 1.78 | – | – | – | LK-RB1-45 (antibody, human IgG4 S228P, kappa, V domains shown) VH: QVQLQQSGTELARPGASVKLSCKASGYTFTNFWMHWIKQRPGQGLEWIGYVNPTSDYTKYNQKFKDKATLTADKSSSTAYMQLNSLTYEDSAVYYCTRSSLYDTNYVFDSWGQGTTLTVSS VL: DILLTQSPAILSVSPGERVSFSCRASQSIGRSIHWYQQRTNGSPRLLIKYASESISGIPSRFSGGGSGTDFTLSISNVESEDIADYYCQQSNNWPFTFGSGTKLEIKR |
| – | no binding | 1.4 | 1.97 | 23 | – | LK-RB1-5 (antibody, human IgG4 S228P, kappa, V domains shown) VH: QVQLQQPGAELVKPGASVKLSCKASGYTFTDFWIHWVKQRPGQGLEWIGMIHPNSGSTNFNEKFRAKATLTVDKSSSTAYMRLSSLTSEDSAVYYCARSGDGYSNPMDYWGQGTSVTVSS VL: QIVLSQSPAILSASPGEKVTLTCRASSSVSYMHWYQQKPGSSPKPWIYATSNLASGVPVRFSGSGSGTSYSLTISRMQTEDAATYYCQQWRRSPYTFGGGTKLEIKR |
| – | no binding | 1.14 | 2.08 | 87 | – | LK-RB1-3 (antibody, human IgG4 S228P, kappa, V domains shown) VH: QVQLQQPGAELVKPGTSVNLSCKASGYTFTSYWIHWVKQRPGRGLEWIGRINPYSSGTRYNEKFKNKATLTVDKPSSTAYMQLTSLTSEDSAVYYCARFDGAPDYFDFWGQGTTLTVSS VL: DIVMTQSQKFMPTSVGDRVNVTCKASQNVGINVAWYQQKLGQSPKALIYSASYRYSGVPDRFTGSGSGTDFTLTINSVQSEDLADYFCQQYNNYPFTFGSGTKLEIKR |
